Reference: patent US20230220589A1
Changes are numbered by the printed parent chain. Each block holds one binder with its values, some of them ahead of it.

What was measured:
[1] = target: M17-modified I NTAA target peptides; assay: encoding assay; P2 Y
[2] = target: M17-modified F NTAA target peptides; assay: encoding assay; P2 Y
[3] = target: M17-modified L NTAA target peptides; assay: encoding assay; P2 Y
[4] = target: M17-modified P NTAA target peptides; assay: encoding assay; P2 Y
[5] = target: M17-modified G NTAA target peptides; assay: encoding assay; P2 Y
[6] = target: M17-modified W NTAA target peptides; assay: encoding assay; P2 Y
[7] = target: M17-modified H NTAA target peptides; assay: encoding assay; P2 F
[8] = target: M17-modified N NTAA target peptides; assay: encoding assay; P2 F
[9] = target: M17-modified Y NTAA target peptides (M17-Y-P2-peptide); assay: encoding assay; P2 F
[10] = target: M17-modified I NTAA target peptides; assay: encoding assay; P2 F
[11] = target: M17-modified F NTAA target peptides; assay: encoding assay; P2 F
[12] = target: M17-modified E NTAA target peptides; assay: encoding assay; P2 F
[13] = target: M17-modified M NTAA target peptides; assay: encoding assay; P2 F
[14] = target: M17-modified L NTAA target peptides; assay: encoding assay; P2 F
[15] = target: M17-modified D NTAA target peptides; assay: encoding assay; P2 F
[16] = target: M17-modified A NTAA target peptides; assay: encoding assay; P2 F
[17] = target: M17-modified P NTAA target peptides; assay: encoding assay; P2 F
[18] = target: M17-modified G NTAA target peptides; assay: encoding assay; P2 F
[19] = target: M17-modified S NTAA target peptides; assay: encoding assay; P2 F
[20] = target: M17-modified V NTAA target peptides; assay: encoding assay; P2 F
[21] = target: M17-modified T NTAA target peptides; assay: encoding assay; P2 F
[22] = target: M17-modified W NTAA target peptides; assay: encoding assay; P2 F
[23] = target: M17-modified Q NTAA target peptides; assay: encoding assay; P2 F
[24] = target: M17-modified Y NTAA target peptides (M17-Y-P2-peptide); assay: encoding assay; P2 I
[25] = target: M17-modified F NTAA target peptides; assay: encoding assay; P2 I
[26] = target: M17-modified M NTAA target peptides; assay: encoding assay; P2 I
[27] = target: M17-modified L NTAA target peptides; assay: encoding assay; P2 I
[28] = target: M17-modified P NTAA target peptides; assay: encoding assay; P2 I
[29] = target: M17-modified G NTAA target peptides; assay: encoding assay; P2 I
[30] = target: M17-modified S NTAA target peptides; assay: encoding assay; P2 I
[31] = target: M17-modified T NTAA target peptides; assay: encoding assay; P2 I
[32] = target: M17-modified W NTAA target peptides; assay: encoding assay; P2 I
[33] = target: M17-modified Q NTAA target peptides; assay: encoding assay; P2 I
[34] = target: M17-modified H NTAA target peptides; assay: encoding assay; P2 Q
[35] = target: M17-modified N NTAA target peptides; assay: encoding assay; P2 Q
[36] = target: M17-modified Y NTAA target peptides (M17-Y-P2-peptide); assay: encoding assay; P2 Q
[37] = target: M17-modified I NTAA target peptides; assay: encoding assay; P2 Q
[38] = target: M17-modified F NTAA target peptides; assay: encoding assay; P2 Q
[39] = target: M17-modified E NTAA target peptides; assay: encoding assay; P2 Q
[40] = target: M17-modified L NTAA target peptides; assay: encoding assay; P2 Q
[41] = target: M17-modified D NTAA target peptides; assay: encoding assay; P2 Q
[42] = target: M17-modified A NTAA target peptides; assay: encoding assay; P2 Q
[43] = target: M17-modified P NTAA target peptides; assay: encoding assay; P2 Q
[44] = target: M17-modified G NTAA target peptides; assay: encoding assay; P2 Q
[45] = target: M17-modified S NTAA target peptides; assay: encoding assay; P2 Q
[46] = target: M17-modified V NTAA target peptides; assay: encoding assay; P2 Q
[47] = target: M17-modified T NTAA target peptides; assay: encoding assay; P2 Q
[48] = target: M17-modified W NTAA target peptides; assay: encoding assay; P2 Q
[49] = target: M17-modified Q NTAA target peptides; assay: encoding assay; P2 Q
[50] = target: M44-modified Y NTAA target peptides (M44-Y-P2-peptide); assay: encoding assay; P2 Q
[51] = target: M44-modified T NTAA target peptides; assay: encoding assay; P2 Q
[52] = target: M44-modified G NTAA target peptides (M44-G-P2-peptide); assay: encoding assay; P2 Q
[53] = target: M44-modified W NTAA target peptides; assay: encoding assay; P2 Q
[54] = target: M44-modified P NTAA target peptides; assay: encoding assay; P2 Q
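Further: fraction of recording tags encoded.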

encoding yield [1]: 0.1
encoding yield [2]: 0.09
encoding yield [3]: 0.1
encoding yield [4]: 0.03
encoding yield [5]: 0.04
encoding yield [6]: 0.07
encoding yield [7]: 0.03
encoding yield [8]: 0.02
encoding yield [9]: 0.2
encoding yield [10]: 0.06
encoding yield [11]: 0.07
encoding yield [12]: 0.04
encoding yield [13]: 0.03
encoding yield [14]: 0.04
encoding yield [15]: 0.02
encoding yield [16]: 0.02
encoding yield [17]: 0.01
encoding yield [18]: 0.03
encoding yield [19]: 0.02
encoding yield [20]: 0.02
encoding yield [21]: 0.02
encoding yield [22]: 0.05
encoding yield [23]: 0.02
encoding yield [24]: 0.17
encoding yield [25]: 0.03
encoding yield [26]: 0.01
encoding yield [27]: 0.02
encoding yield [28]: 0.01
encoding yield [29]: 0.01
encoding yield [30]: 0.01
encoding yield [31]: 0.01
encoding yield [32]: 0.02
encoding yield [33]: 0.02
encoding yield [34]: 0.04
encoding yield [35]: 0.03
encoding yield [36]: 0.03
encoding yield [37]: 0.02
encoding yield [38]: 0.04
encoding yield [39]: 0.02
encoding yield [40]: 0.03
encoding yield [41]: 0.01
encoding yield [42]: 0.03
encoding yield [43]: 0.01
encoding yield [44]: 0.02
encoding yield [45]: 0.03
encoding yield [46]: 0.03
encoding yield [47]: 0.01
encoding yield [48]: 0.01
encoding yield [49]: 0.01
B1: engineered M17-Y binder (SEQ ID NO: 61) (designed binder, not shown: small tags and cut ends; large carriers)
chain: TVPDRSEIAGKWYVVALASNTEFYLREKDWVKSAMARISFLGEDELKVSSAVPSPNGCYKVERTWKKTSDDGEVYNSRAAKLKVEVLDTDYKSYAVIYATRVKDGRTDHQMILYSRSPEVSPAATAIFRKLAGERNYTDEMVAMLPRQEECTVDEV

encoding yield [50]: 0.02
encoding yield [51]: 0.02
encoding yield [52]: 0.01
encoding yield [53]: 0.02
encoding yield [54]: 0.01
B4: engineered M44-A binder (SEQ ID NO: 42) (designed binder, not shown: small tags and cut ends; large carriers)
chain: QVSVQPNFQQDKFLGRWFVAGLASNSSWDREKVAALSGAKMVVAPATDGGLNVTRTMLRKNQCETYTGLLQPAGSLGSYSWRSPHPGSTGSESVVETDYDQYALVYGQGSKGPGEDLRAAALWSRTQTPRAELKEKFTAFSKAQGFTEDTIVFLPQTDKCMTEQ

Further lines, the binder ahead of its results:

B2: upgraded binder after additional maturation round (SEQ ID NO: 62) (designed binder, not shown: small tags and cut ends; large carriers)
chain: B1 chain with E27G, W30R, A36V, L41Q, G105R, E119D
encoding yield [1]: 0.12
encoding yield [2]: 0.1
encoding yield [3]: 0.11
encoding yield [4]: 0.05
encoding yield [5]: 0.06
encoding yield [6]: 0.12
encoding yield [7]: 0.04
encoding yield [8]: 0.03
encoding yield [9]: 0.28
encoding yield [10]: 0.06
encoding yield [11]: 0.1
encoding yield [12]: 0.04
encoding yield [13]: 0.05
encoding yield [14]: 0.05
encoding yield [15]: 0.02
encoding yield [16]: 0.04
encoding yield [17]: 0.02
encoding yield [18]: 0.04
encoding yield [19]: 0.02
encoding yield [20]: 0.02
encoding yield [21]: 0.03
encoding yield [22]: 0.11
encoding yield [23]: 0.03
encoding yield [24]: 0.31
encoding yield [25]: 0.05
encoding yield [26]: 0.02
encoding yield [27]: 0.05
encoding yield [28]: 0.01
encoding yield [29]: 0.02
encoding yield [30]: 0.02
encoding yield [31]: 0.02
encoding yield [32]: 0.04
encoding yield [33]: 0.03
encoding yield [34]: 0.03
encoding yield [35]: 0.04
encoding yield [36]: 0.15
encoding yield [37]: 0.03
encoding yield [38]: 0.04
encoding yield [39]: 0.02
encoding yield [40]: 0.04
encoding yield [41]: 0.02
encoding yield [42]: 0.04
encoding yield [43]: 0.02
encoding yield [44]: 0.01
encoding yield [45]: 0.03
encoding yield [46]: 0.04
encoding yield [47]: 0.02
encoding yield [48]: 0.02
encoding yield [49]: 0.01

B3: engineered M44-L binder (SEQ ID NO: 31) (designed binder, not shown: small tags and cut ends; large carriers)
chain: QDSTQNLIPAPPLISVPLQPGFWTERFQGRWFLVGFAGNAVQKERQSRLTMQSLILELQEDNSYNITAINVRGQGCRYIISTLVPSSRPGQFTLGNIHSYPQIQSLDVQVADTDYDQFAMVFLQGTSENKQYFEVALAGRTKGLSDELKERFVSFAKSLGLKDNNIVFSVPTDQCIDN
encoding yield [50]: 0.03
encoding yield [51]: 0.02
encoding yield [52]: 0.01
encoding yield [53]: 0.02
encoding yield [54]: 0.01
